Test results reported in patent US20170275666A1, “Methods for Preparing Rebaudioside I and Uses” (The Coca-Cola Company, priority 2014, published 2017).

B1: UGT76G1var77: UGT76G1 variant, mutations A239V_F265I_I295T_D301N_K393G (protein, UniProt Q6VAB4 1-458, looked up, variant A239V F265I I295T D301N K393G)
UDP-glycosyltransferase 76G1: MENKTETTVRRRRRIILFPVPFQGHINPILQLANVLYSKGFSITIFHTNFNKPKTSNYPHFTFRFILDNDPQDERISNLPTHGPLAGMRIPIINEHGADELRRELELLMLASEEDEEVSCLITDALWYFAQSVADSLNLRRLVLMTSSLFNFHAHVSLPQFDELGYLDPDDKTRLEEQASGFPMLKVKDIKSAYSNWQILKEILGKMIKQTKASSGVIWNSFKELEESELETVIREIPVPSFLIPLPKHLTASSSSLLDHDRTVIQWLDQQPPSSVLYVSFGSTSEVDEKDFLETARGLVNSKQSFLWVVRPGFVKGSTWVEPLPDGFLGERGRIVKWVPQQEVLAHGAIGAFWTHSGWNSTLESVCEGVPMIFSDFGLDQPLNARYMSDVLGVGVYLENGWERGEIANAIRRVMVDEEGEYIRQNARVLKQKADVSLMKGGSSYESLESLVSYISSL
B2: UGT76G1var78: UGT76G1 variant, mutations V279I_V300A_V310I_I335V_S357C (protein, UniProt Q6VAB4 1-458, looked up, variant V279I V300A V310I I335V S357C)
UDP-glycosyltransferase 76G1: MENKTETTVRRRRRIILFPVPFQGHINPILQLANVLYSKGFSITIFHTNFNKPKTSNYPHFTFRFILDNDPQDERISNLPTHGPLAGMRIPIINEHGADELRRELELLMLASEEDEEVSCLITDALWYFAQSVADSLNLRRLVLMTSSLFNFHAHVSLPQFDELGYLDPDDKTRLEEQASGFPMLKVKDIKSAYSNWQILKEILGKMIKQTKASSGVIWNSFKELEESELETVIREIPAPSFLIPLPKHLTASSSSLLDHDRTVFQWLDQQPPSSVLYISFGSTSEVDEKDFLEIARGLADSKQSFLWVIRPGFVKGSTWVEPLPDGFLGERGRVVKWVPQQEVLAHGAIGAFWTHCGWNSTLESVCEGVPMIFSDFGLDQPLNARYMSDVLKVGVYLENGWERGEIANAIRRVMVDEEGEYIRQNARVLKQKADVSLMKGGSSYESLESLVSYISSL
B3: UGT76G1var82: UGT76G1 variant, mutations E224D_L243A_F265L_R334H_A352G (protein, UniProt Q6VAB4 1-458, looked up, variant E224D L243A F265L R334H A352G)
UDP-glycosyltransferase 76G1: MENKTETTVRRRRRIILFPVPFQGHINPILQLANVLYSKGFSITIFHTNFNKPKTSNYPHFTFRFILDNDPQDERISNLPTHGPLAGMRIPIINEHGADELRRELELLMLASEEDEEVSCLITDALWYFAQSVADSLNLRRLVLMTSSLFNFHAHVSLPQFDELGYLDPDDKTRLEEQASGFPMLKVKDIKSAYSNWQILKEILGKMIKQTKASSGVIWNSFKDLEESELETVIREIPAPSFAIPLPKHLTASSSSLLDHDRTVLQWLDQQPPSSVLYVSFGSTSEVDEKDFLEIARGLVDSKQSFLWVVRPGFVKGSTWVEPLPDGFLGERGHIVKWVPQQEVLAHGAIGGFWTHSGWNSTLESVCEGVPMIFSDFGLDQPLNARYMSDVLKVGVYLENGWERGEIANAIRRVMVDEEGEYIRQNARVLKQKADVSLMKGGSSYESLESLVSYISSL
B4: UGT76G1var80: UGT76G1 variant, mutations L243P_L379A_S389E_Q425E_Q432E (protein, UniProt Q6VAB4 1-458, looked up, variant L243P L379A S389E Q425E Q432E)
UDP-glycosyltransferase 76G1: MENKTETTVRRRRRIILFPVPFQGHINPILQLANVLYSKGFSITIFHTNFNKPKTSNYPHFTFRFILDNDPQDERISNLPTHGPLAGMRIPIINEHGADELRRELELLMLASEEDEEVSCLITDALWYFAQSVADSLNLRRLVLMTSSLFNFHAHVSLPQFDELGYLDPDDKTRLEEQASGFPMLKVKDIKSAYSNWQILKEILGKMIKQTKASSGVIWNSFKELEESELETVIREIPAPSFPIPLPKHLTASSSSLLDHDRTVFQWLDQQPPSSVLYVSFGSTSEVDEKDFLEIARGLVDSKQSFLWVVRPGFVKGSTWVEPLPDGFLGERGRIVKWVPQQEVLAHGAIGAFWTHSGWNSTLESVCEGVPMIFSDFGADQPLNARYMEDVLKVGVYLENGWERGEIANAIRRVMVDEEGEYIRENARVLKEKADVSLMKGGSSYESLESLVSYISSL
B5: UGT76G1var5: UGT76G1 variant, mutations F22Y_I373L_P382M (protein, UniProt Q6VAB4 1-458, looked up, variant F22Y I373L P382M)
UDP-glycosyltransferase 76G1: MENKTETTVRRRRRIILFPVPYQGHINPILQLANVLYSKGFSITIFHTNFNKPKTSNYPHFTFRFILDNDPQDERISNLPTHGPLAGMRIPIINEHGADELRRELELLMLASEEDEEVSCLITDALWYFAQSVADSLNLRRLVLMTSSLFNFHAHVSLPQFDELGYLDPDDKTRLEEQASGFPMLKVKDIKSAYSNWQILKEILGKMIKQTKASSGVIWNSFKELEESELETVIREIPAPSFLIPLPKHLTASSSSLLDHDRTVFQWLDQQPPSSVLYVSFGSTSEVDEKDFLEIARGLVDSKQSFLWVVRPGFVKGSTWVEPLPDGFLGERGRIVKWVPQQEVLAHGAIGAFWTHSGWNSTLESVCEGVPMLFSDFGLDQMLNARYMSDVLKVGVYLENGWERGEIANAIRRVMVDEEGEYIRQNARVLKQKADVSLMKGGSSYESLESLVSYISSL
B6: UGT76G1var79: UGT76G1 variant, mutations E224D_T284I_V366I_I373L_K393G (protein, UniProt Q6VAB4 1-458, looked up, variant E224D T284I V366I I373L K393G)
UDP-glycosyltransferase 76G1: MENKTETTVRRRRRIILFPVPFQGHINPILQLANVLYSKGFSITIFHTNFNKPKTSNYPHFTFRFILDNDPQDERISNLPTHGPLAGMRIPIINEHGADELRRELELLMLASEEDEEVSCLITDALWYFAQSVADSLNLRRLVLMTSSLFNFHAHVSLPQFDELGYLDPDDKTRLEEQASGFPMLKVKDIKSAYSNWQILKEILGKMIKQTKASSGVIWNSFKDLEESELETVIREIPAPSFLIPLPKHLTASSSSLLDHDRTVFQWLDQQPPSSVLYVSFGSISEVDEKDFLEIARGLVDSKQSFLWVVRPGFVKGSTWVEPLPDGFLGERGRIVKWVPQQEVLAHGAIGAFWTHSGWNSTLESICEGVPMLFSDFGLDQPLNARYMSDVLGVGVYLENGWERGEIANAIRRVMVDEEGEYIRQNARVLKQKADVSLMKGGSSYESLESLVSYISSL
B7: UGT76G1var81: UGT76G1 variant, mutations A33G_T263S_S274G_V279I_Y397E (protein, UniProt Q6VAB4 1-458, looked up, variant A33G T263S S274G V279I Y397E)
UDP-glycosyltransferase 76G1: MENKTETTVRRRRRIILFPVPFQGHINPILQLGNVLYSKGFSITIFHTNFNKPKTSNYPHFTFRFILDNDPQDERISNLPTHGPLAGMRIPIINEHGADELRRELELLMLASEEDEEVSCLITDALWYFAQSVADSLNLRRLVLMTSSLFNFHAHVSLPQFDELGYLDPDDKTRLEEQASGFPMLKVKDIKSAYSNWQILKEILGKMIKQTKASSGVIWNSFKELEESELETVIREIPAPSFLIPLPKHLTASSSSLLDHDRSVFQWLDQQPPGSVLYISFGSTSEVDEKDFLEIARGLVDSKQSFLWVVRPGFVKGSTWVEPLPDGFLGERGRIVKWVPQQEVLAHGAIGAFWTHSGWNSTLESVCEGVPMIFSDFGLDQPLNARYMSDVLKVGVELENGWERGEIANAIRRVMVDEEGEYIRQNARVLKQKADVSLMKGGSSYESLESLVSYISSL

test: Directed evolution of UGT76G1, conversion of Rebaudioside D to Rebaudioside M (round 1); format: biochemical; settings: 0.5 mM Rebaudioside D, 2.5 mM UDP-Glucose, 100 μL fresh lysate, 30° C., pH 7.2
Method in brief: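 Conversion to Reb M and initial rate were measured by HPLC with CAD at 2, 4, 7 and 24 h, with reactions run at 30° C in 50 mM phosphate pH 7.2 containing 0.5 mM Reb D, 2.5 mM UDP-glucose and 3 mM MgCl2. Enzyme source: fresh lysates of E. coli BL21(DE3) expressing 3-5-mutation UGT76G1 variants.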

In order of rising “Conversion Reb D to Reb M after 24 h (%)” value:
1. B4  1.0%
2. B3  1.1%
3. B1  1.9%
4. B2  3.2%
5. B5  3.5%
6. B6  8.5%
7. B7  15.0%

In order of falling “initial rate (Reb M area/min)” value:
1. B7  6.5E+06 Reb M area/min
2. B6  3.8E+06 Reb M area/min
3. B5  2.3E+06 Reb M area/min
4. B2  8.2E+05 Reb M area/min
5. B1  4.4E+05 Reb M area/min
6. B3  2.5E+05 Reb M area/min
7. B4  2.1E+05 Reb M area/min
